From a protein production outcome set (Wang et al. 2014) come the findings set out here.

A short description of the data set: label from the status in PepcDB records.

In the case of “MKTLVHLSDLHFGKTESQLVDAIAAEVRAVDSDLLVVSGDLTQRARKDEFLQARAFLDSLPGPRIVVPGNHDVPLWNVFARAMTPLSRYRRYIEADTDPFYADSEVAVVGINTARSLTIKDGRINVRQLKAATEKFAHMSDDITRIVVTHHPFEGRDLESDDGIVGRADLAMHAFSRSGVDIILSGHQHLHRAGSSARRYLIDGYAALLIQAGTAVSSRLRRAANSFNIIRIEHPRISVECRAWQPSQSGFETSASYSFRQGPGGWKPT”, the protein production entry is listed as “failed”.
Take “MKTPTFGKREETLTYQTRYAAYIIVSKPENNTMVLVQAPNGAYFLPGGEIEGTETKEEAIHREVLEELGISVEIGCYLGEADEYFYSNHRQTAYYNPGYFYVANTWRQLSEPLERTNTLHWVAPEEAVRLLKRGSHRWAVEKWLAAAS”: the protein production result is recorded as “not failed”.
To “MKTRCGCKKIASYTVVKLILNRLDVAMNSTIRRWFASAGAMRRVFSTFAPYLGAGIKVTHIADDFSSATVEMRQHWYNTNYVGTHFGGSLYSMVDPMYMLLLMRSLGNDYIVWDKSASIDFIRPGKGVVKAHFELTDARLDEIREATADGDKYLPEWYIDIVDEAGTVVSRVHKVLYVRRKPAE” belongs “failed”; to “MKTRMKITIAFVAVMVLSFTGYNVYKTQKAIQLSDVAMANVEALADGEGTNAGYCYLEDTWSTKRGYKYFCDSKTDKNTIYPCPSSMESGWYDDNKQDRCTK”, “failed”; to “MKTTALRLYGKRDLRLETFDLPEMQEDEILATVVTDSLCLSSWKEANLGENHKKVPDDVATNPIIIGHEFCGDILAVGKKWQHKFQPGQRYVIQANLQLPDRPDCPGYSFPWVGGEATHVVIPNEVMEQDCLLAYDGETYFEGSLVEPLSCVIGAFNANYHLQEGSYNHTMGIRPQGRMLILGGTGPMGLLAIDYALHGPVNPSQLVITDTDNDKLSYARKHYPSEPQTLIHYLNAADAAFDTLMALSGGHGFDDIFVFVPNEGLVTLASSLLATDGCLNFFAGPQDKHFSAPINFYDVHYAFTHYVGTSGGNTDDMRAAVKLIEEKKVQAAKVVTHILGLNAAGETTLELPAVGGGKKLVYTGKYLPLTSLTQIQDQALAAILARHQGIWSGEAEQYLLTHAEAISHD”, “failed”.
Turning to “MKTTALRLYGKRDLRLETFDLPEMQEDEILATVVTDSLCLSSWKEANLGENHKKVPDDVTTNPIIIGHEFCGDILAVGKKWQHKFQPGQRYVIQANLQLPDRPDCPGYSFPWVDGEATHVVIPNEVMEQYCLLAYDGETYFEGSLVEPLSCVIGAFNANYHLQEGSYNHTMGIRPQGHTLILGGTGPMGLLAIDYALHGPVNPSLLVITDTDNDKLSYARKHYPSEPQTLIHYLNATDAAFDTLMALSGGHGFDDIFVFVPNEGLVTLASSLLATDGCLNFFAGPQDKHFSAPINFYDVHYAFTHYVGTSGGNTDDMRAAVKLIEEKKVQAAKVVTHILGLNAAGETTLELPAVGGGKKLVYTGKYLPLTSLTQIQDQALAAILARHQGIWSGEVEQYLLAHAEAISHDLEHHHHHH”, the protein production result is “failed”.
With “MKTTLIISTYNRPEALSVCLDSVRFQTVMPDEVIVGDDGSTSETKDLIESFKKDFPVPLIHLWQEDKGFRLAMMRNKSVAAATGDYIIEIDGDIFLHNKFVEDHKRLAKPGHYLRGTRVNLGQKLTEEICKSKVNRRIYPWTIGIQNRAETAIHSTPVSNFFADRYKKNVSSGLGCNMSFWRSDFLAINGYDEFFEGWGKEDDDLTHRLQRKGCKKRSLRFAGIVYHLWHGHESMESDQKNAEYFRKNNEKNIVYCENGVSKYLKQELEHHHHHH”, the protein production result is given as “not failed”.
To “MKTTYNRWWKKKVWFGRKDMSYKVIVDSCGEFTPEMKADGGFEHVALGIQIEDTQWTDDDSLKQEELLLKIAESTSCAKTSCPSPERYMESYHCDAERIYVVTLSAELSGSYNSAVLGKNLYEEEYGEKQIHVFNSRSASVGETLIALKVQQCEKAGMTFEEVVESVECYIEEQHTYFVLENLDTLRKNGRLTGIKSLVAGALNIKPIMGSTPQGTICQKEKARGMKKALVKMADCVAADVVNAGDKILAIAHCNCEERAKEVQRLLKERFAVKSSFIVDTSGISTVYANDGGIIVVV” belongs “not failed”; to “MKTYTLIATAPMGIEAIVAKEVRDLGYDCTVDNGKVVFEGDALAICRANLWLRTADRVKVQAAEFIAKTFDELFEKTKAIDWSAYLPEHASFPVTGKSVKSVLASVPDCQRIVKKAIAEKLKSEYQTQGEWLEETGPEYKIEVSLLKDKAVITLDSSGAGLHKRGYRTGQGEAPLKETLAAALILLTNWTPDRPFVDPFCGSGTIPIEAALIGQNIAPGFNRDFASERWEWIGKEVWDQARLEVEEKANYDQPLSISGYDLDHRMIEIAKANAEEAGLADFIEFKQMQVKDFRTKEEYGVIVGNPPYGERLGEKKAVEAMYKDMGKAFAELDTWSVYMLTSNERFEECYGKKATKKRKLFNGFIKTDYYQYWGKRPPKPNKEK”, “not failed”; to “MKVALGGTFEPLHEGHKKLIDVAIKLGGRDITIGVTSDRMARARIRSVLPFAIRAENVKRYVMRKYGFEPEIVKITNPYGKTLDVDFEYLVVSPETYEMALKINQKREELGKRKITIVKVDWMMAEDGKPISSTRIKRGEID”, “not failed”.
As for “MKVAVLVGGVGRRIGMEKTEVMLCGKKLIEWVLEKYSPFQTVFVCRDEKQAEKLSSRYEAEFIWDLHKGVGSIAGIHAALRHFGSCVVAAIDMPFVKPEVLEHLYKEGEKAGCDALIPKHDYPEPLLAYYAESAADELERAILQGIRKILVPLERLNVVYYPVEKLRKFDKELISFFNINTPDDLKRAEEICSKMSTEGLLEHHHHHH”, the protein production result is on record as “not failed”.
The same measure for “MKVCLQCENFFSSADWACPSCGYQPERLNGIEAHASEFAHGGGGFKPEYFSELSRLEAGNFWFRARNELILWALRTYKPNAGAFLEVGCGTGFVLSGIARACPEIALNGSEIFLAGLFHAAKRVPSTHFMQMDARRVPFVEEFDAIGAFDVLEHIEEDETVLAQLHNAIKPSGVLLLTVPQHPRLWSASDDYACHVRRYTRVEIEQKVLTAGFELLRSSSFVTSLLPVMMLSRVLQKRKTKDFDPAGELKINAALNKVFYGLMMLELAGIRLGMNYPVGGSRLVVAKKQSALEHHHHHH”: “not failed”; for “MKVFIAGGRGRVGSLLADNLEAKGIEVVSGGLEDGIDVISGKGLTEALAGVDTIVNVLNTPRFDAEGAISFFEGAINNLTAEGERAGVRHHIVLSIVGVGQGDASEVGYYLGKVAQEKAVRSASIPATIIRATQFQSYIPVLIDQHTVDGKVIAPRSFVQPVELDEVIELLAEAATTLEPGSEVEIAGPDRFYHDDLFRATLADRGDDREVVTVDAEGAPDVMVPRGAYRTGTVRYPITGIPTV”: “failed”.
For the sequence “MKVGAVVITMGNRPEELRALLDSVAKQDGDPVQVVVVGNGSPVPEVPEGVRTVELPENLGIPGGRNVGIEAFGPGGSDVDILLFLDDDGLLARTDTAELCREAFAADDELGIISFRIADPDTGETQRRHVPRLRASDPMRSSRVTTFLGGANAVRTRVLTQVGGLPDAFFYAHEETDLAWRALDAGWMIDYRSDMVLNHPTTAPSRHAVYHRMVARNRVWLARRNLPALLVPVYLGVWMALTLLRRPSRPALKAWFGGFREGWATPCGPRRPMRWRTVWRLTRLGRPPVI”, the protein production result is listed as “failed”.
To “MKVIMTTKVDKASMNIMNKLIENFGFKETEYVFDGNPVYKRGDVLILTTNDEMIYYDYLDREIENQLGFKPEIIAFASRHSSKQKLPALTTHVTGNWGKAMYGGKDESFAVAIPSAMKLSLLKMSELNDLGWTVCYEATHHGPTELEVPSFFIEIGSSEEEWINDRAGEIIAETIIYVLDNYEKGRSKFKVALGIGGGHYAPKQTKRALEGDLAFGHILPKYAQPVSRDVMIKALNRFGEKVEAIYVDWKGSRGETRQLAKSLAQELGLEFIKD” belongs “not failed”; to “MKVLLDTNIIVDFLSKRPVFFNEAEKIISKCRDGEIIGIVAVHTVSTLFYLLKKYVSPETLRDIFYNLFEIIEIGRADKNSVLEALKNTEFTDFEDGLQYQCALEEFVDCIITRNKKDFFSSKIPVYTPSEFLKSLLEHHHHHH”, “failed”; to “MKVLREDEESEIVKQFLDDNNSVIVDFDPIDLYEAVHPPFSIRLSIDRISAMPLSILRRRAAAFVSDPQTLSKLLNNDIAGKFDFIYDNSNRSWQKYYPFSYYRSINAADLYENIKAYTVLDVREPFELIFGSIANSINIPISELREKWKILERDKKYAVICAHGNRSAAAVEFLSQLGLNIVDVEGGIQSWIEEGYPVVYGRESAED”, “failed”.
As for “MKVLVFICGEGLGHTSRGIALGRELLAAGHEVYLGAYGYSKEFIERKGYKTVEIPPEIKLVGESGSLNLKRSIISTLKGGNVFGIFKVLSLLKEKKPDIVVSDSYFTGVVASKIRGIPVYLIVNQSNMETFFKNGGIALRTMGGIIKQFYSCIFRRVDRIVIPDFPMPYTVCRLNLAFEEKVSKNLFFSGPLTLKKFDDVKAEVLQKPHVLSLIGGFGYREPIFRKVIEVAKLDKSINYTLLSGPSLNPDVFSNLPENVTIKRFINDQFPYLKASDLVIAPGGHSTIMEALTFGVPVLSFPDINHSEQESNATVVDLAGYGKRLDYSASPEEILRSIKELLKDEKIHQKVEIMKKLSKDLNATATFKELLESNSKRSQKV”, the protein production result was “failed”.
Consider “MKVNETGVEELNPYPDRPGERDCQFYLRTGLCGYGSSCRYNHPTHLPQDVAYYKEELPERIGQPDCEYFLKTGACKYGPTCKYHHPKDRNGAQPVMFNVIGLPMRLGEKPCPYYLRTGTCRFGVACKFHHPQPDNGHSTAYGMSSFPAADLRYASGLTMMSTYGTLPRPQVPQSYVPILVSPSQGFLPPQGWAPYMAASNSMYNVKNQPYYSGSSASMAMAVALNRGLSESSDQPECRFFMNTGTCKYGDDCKYSHPGVRISQPPPSLINPFVLPARPGQPACGNFRSYGFCKFGPNCKFDHPMLPYPGLTMATSLPTPFASPVTTHQRISPTPNRSDSKSLSNGKPDVKKESSETEKPDNGEVQDLSEDASSP”, for which the protein production result was “failed”.
To “MKVNKFITIYKDIAQQIEGGRWKAEEILPSEHELTAQYGTSRETVRKALHMLAQNGYIQKIRGKGSVVLNREKMQFPVSGLVSFKELAQTLGKETKTTVHKFGLEPPSELIQKQLRANLDDDIWEVIRSRKIDGEHVILDKDYFFRKHVPHLTKEICENSIYEYIEGELGLSISYAQKEIVAEPCTDEDRELLDLRGYDHMVVVRNYVFLEDTSLFQYTESRHRLDKFRFVDFARRGK” belongs “not failed”.
For “MKVNPDFFPLTQMAQRFVDQLAQCRRLGLTVLEASEHHVLIELPYSTELIGYPDTGVIHGGVITTLMDTACGSAVVSAIFQKYQSLEISPTLDLRVDYMKPAQPHKSVYGFAECYKLSSNIAFTRAIAYQDSIDDPIAHAVGSFMRISPEMVGDAFRQALIGLEHHHHHH”, the protein production entry is on record as “not failed”.
The same measure for “MKVRNVIIGFMVASLTGCSMGHRDPVEIKQTLDKSINENGGLLLADLPASVQADLMPELNTPHVEVEEPVKRFRVRANGVGAKAFFTSLVKGTEYSVVIHPQVSGRITMNLSDVTMDDVLSSVEDLYGYDIVKAGKVLQVYPATIRTETIPVDYLQLTRKGRSLTTITTGSITNSDNNSSNNNNSSSKSNNNSSSSSSSATGGTEIETTSESDFWKELETAISVMIGNGADRSVVVSPQASVVTITASPDELRKVKQFLGTSHKRLQRQVILEAKLLEVTLSDGYQQGINWSNLTASLGGTDVVFGQTSGLVQGALPGMDTIGTLLGGQTNITVSDGNFQAVLSFMDTQGDLNVLSSPRVTAANNQKAVIKVGRDEYYVTEVSSVTGSGDNSNASPEVTLTPFFSGISLDVTPQIDDKGNVMLHVHPSVIDVENEVKEIDLGDVGGVLKLPLAKSSIRESDSVIRAKSGDVVVIGGLMKSQTVDQVSKVPLLGDVPALGHLFRNVSQLTQKTELVILLKPTVVGVDTWQEELERSRDLLQEWFPDELEHHHHHH”: “not failed”.
